From publication PMC10786891, “Massively parallel profiling of RNA-targeting CRISPR-Cas13d”
Where a chain is given by its changes, count along the chain named. Names may count otherwise.

Target: T1, EsCas13d, nuclease-dead (Eubacterium siraeum, UniProt B0MS50, R295A;H300A;R849A;H854A)
T1 sequence: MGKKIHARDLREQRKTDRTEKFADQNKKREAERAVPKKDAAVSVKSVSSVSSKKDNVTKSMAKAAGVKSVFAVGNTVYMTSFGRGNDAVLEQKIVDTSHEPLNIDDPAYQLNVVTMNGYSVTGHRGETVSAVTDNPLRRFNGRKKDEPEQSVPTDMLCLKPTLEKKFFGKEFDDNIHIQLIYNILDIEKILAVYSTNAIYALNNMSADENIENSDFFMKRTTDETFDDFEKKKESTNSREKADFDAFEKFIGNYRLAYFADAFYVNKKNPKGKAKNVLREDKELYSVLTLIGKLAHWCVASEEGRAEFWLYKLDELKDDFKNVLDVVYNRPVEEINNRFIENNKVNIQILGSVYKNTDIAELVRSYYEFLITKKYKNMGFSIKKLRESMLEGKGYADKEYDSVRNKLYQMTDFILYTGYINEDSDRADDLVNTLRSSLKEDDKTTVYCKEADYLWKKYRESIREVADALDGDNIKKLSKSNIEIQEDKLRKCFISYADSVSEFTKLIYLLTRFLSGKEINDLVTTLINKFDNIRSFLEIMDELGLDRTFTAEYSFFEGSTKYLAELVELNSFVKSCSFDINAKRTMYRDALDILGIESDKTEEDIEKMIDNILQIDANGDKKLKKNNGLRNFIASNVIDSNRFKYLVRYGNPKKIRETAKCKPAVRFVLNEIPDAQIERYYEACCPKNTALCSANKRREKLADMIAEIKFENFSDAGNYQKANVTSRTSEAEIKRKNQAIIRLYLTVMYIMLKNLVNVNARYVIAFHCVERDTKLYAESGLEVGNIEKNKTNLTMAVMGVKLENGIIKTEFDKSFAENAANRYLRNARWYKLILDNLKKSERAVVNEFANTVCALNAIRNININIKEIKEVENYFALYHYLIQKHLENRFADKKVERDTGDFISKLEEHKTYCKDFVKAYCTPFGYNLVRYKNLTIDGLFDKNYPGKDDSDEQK
Assay: crRNA (strand 1, pre-loaded); Mg2+; 40 mM Tris-HCl pH 7.5, 150 mM NaCl, 6 mM MgCl2, 1 mM DTT, 0.1% Tween-20, 0.2 mg/ml BSA; 25 C; 10 min per concentration, then washed
Conditions: tags: His6-TwinStrep-SUMO cleaved; N-terminal SNAP kept (SNAP-Surface 488); label: 3' end held by stalled T7 RNA polymerase

B1: target 1 A1C,G17C (mixed)
RNA 1: CACCCGUGCAAAAAUGCAGGGGUCUAAAACUGAGCGGAUAACCUCUCUAUGG
RNA 2: GGGAAUGGAUCCACAUCUACGAAUUCGUACCAUACAGAGGUUAUCCGCUCCCCGAGAUCGGAAGAGCACACGU
In the case of B1, the Kd is reported as 54 ± 15 nM.

B2: target 1 A16U (mixed)
RNA 1: B1 RNA 1
RNA 2: B1 RNA 2 with C35G, A36U, C51A
B2 was tested, and the Kd was 58 ± 9 nM.

B3: target 1 A1G,A16U (mixed)
RNA 1: B1 RNA 1
RNA 2: B1 RNA 2 with C35G, A36U, C51G
B3 gave a Kd of 45 ± 11 nM.

B4: target 1 MT 5'PFS GUA 3'PFS GCC (mixed)
RNA 1: B1 RNA 1
RNA 2: B1 RNA 2 with C35G, C51A, C52G, G54C
With B4 the Kd was 8.5 ± 1 nM.

B5: target 1 MT 5'PFS UCA 3'PFS CAU (mixed)
RNA 1: B1 RNA 1
RNA 2: B1 RNA 2 with G27U, U28C, C35G, C51A, C53A, G54U
B5 gave a Kd of 14.7 ± 4.85 nM.

B6: target 1 MT 5'PFS GAC 3'PFS AUC (mixed)
RNA 1: B1 RNA 1
RNA 2: B1 RNA 2 with U28A, A29C, C35G, C51A, C52A, C53U, G54C
For B6, the Kd was about 29 nM.

B7: target 1 MT 5'PFS AGC 3'PFS AUC (mixed)
RNA 1: B1 RNA 1
RNA 2: B1 RNA 2 with G27A, U28G, A29C, C35G, C51A, C52A, C53U, G54C
B7 gave a Kd of about 30.5 nM.

B8: target 1 MT 5'PFS ACC 3'PFS UCU (mixed)
RNA 1: B1 RNA 1
RNA 2: B1 RNA 2 with G27A, U28C, A29C, C35G, C51A, C52U, G54U
For B8, the Kd was 8.2 ± 3.2 nM.

B9: target 1 MT 5'PFS CUA 3'PFS UCC (mixed)
RNA 1: B1 RNA 1
RNA 2: B1 RNA 2 with G27C, C35G, C51A, C52U, G54C
For B9, the Kd was 16.2 ± 4.8 nM.

B10: target 1 MT 5'PFS ACA 3'PFS CUA (mixed)
RNA 1: B1 RNA 1
RNA 2: B1 RNA 2 with G27A, U28C, C35G, C51A, C53U, G54A
For B10, the Kd was 12.7 ± 3.5 nM.

B11: target 1 MT 5'PFS AGG 3'PFS AAU (mixed)
RNA 1: B1 RNA 1
RNA 2: B1 RNA 2 with G27A, U28G, A29G, C35G, C51A, C52A, C53A, G54U
Work on B11 yielded a Kd of about 60 nM.

B12: target 1 MT 5'PFS GAC 3'PFS AUU (mixed)
RNA 1: B1 RNA 1
RNA 2: B1 RNA 2 with U28A, A29C, C35G, C51A, C52A, C53U, G54U
B12 was tested, and the Kd was 21.4 ± 4.45 nM.

B13: target 1 MT 5'PFS UCA 3'PFS CAG (mixed)
RNA 1: B1 RNA 1
RNA 2: B1 RNA 2 with G27U, U28C, C35G, C51A, C53A
In the case of B13, the Kd is reported as about 84 nM.

B14: target 1 U3G,C7A (mixed)
RNA 1: B1 RNA 1
RNA 2: B1 RNA 2 with C35G, C45A, U49G, C51A
With B14 the Kd was 7.19 ± 0.31 nM.

B15: target 1 MT 5'PFS CCU 3'PFS UCU (mixed)
RNA 1: B1 RNA 1
RNA 2: B1 RNA 2 with G27C, U28C, A29U, C35G, C51A, C52U, G54U
Binder B15 has a Kd of 14.4 ± 3.1 nM.

B16: target 1 MT 5'PFS AAC 3'PFS UCU (mixed)
RNA 1: B1 RNA 1
RNA 2: B1 RNA 2 with G27A, U28A, A29C, C35G, C51A, C52U, G54U
B16 gave a Kd of 22.5 ± 6.5 nM.

B17: target 1 MT 5'PFS AGG 3'PFS CCG (mixed)
RNA 1: B1 RNA 1
RNA 2: B1 RNA 2 with G27A, U28G, A29G, C35G, C51A
B17 gave a Kd of 28.3 ± 6.35 nM.

B18: target 1 MT 5'PFS GGC 3'PFS UGC (mixed)
RNA 1: B1 RNA 1
RNA 2: B1 RNA 2 with U28G, A29C, C35G, C51A, C52U, C53G, G54C
B18 showed a Kd of 8.6 ± 1.35 nM.

B19: target 1 MT 5'PFS GUA 3'PFS GCG (mixed)
RNA 1: B1 RNA 1
RNA 2: B1 RNA 2 with C35G, C51A, C52G
With B19 the Kd was 7.29 ± 0.49 nM.

B20: target 1 MT 5'PFS ACC 3'PFS UCG (mixed)
RNA 1: B1 RNA 1
RNA 2: B1 RNA 2 with G27A, U28C, A29C, C35G, C51A, C52U
Binder B20 has a Kd of 8.5 ± 3.6 nM.

B21: target 1 MT 5'PFS UCA 3'PFS CAC (mixed)
RNA 1: B1 RNA 1
RNA 2: B1 RNA 2 with G27U, U28C, C35G, C51A, C53A, G54C
B21 was tested, and the Kd was 11 ± 5.5 nM.

B22: target 1 MT 5'PFS UGC 3'PFS UGU (mixed)
RNA 1: B1 RNA 1
RNA 2: B1 RNA 2 with G27U, U28G, A29C, C35G, C51A, C52U, C53G, G54U
With B22 the Kd was 38 ± 13 nM.

B23: target 1 MT 5'PFS GAA 3'PFS CGU (mixed)
RNA 1: B1 RNA 1
RNA 2: B1 RNA 2 with U28A, C35G, C51A, C53G, G54U
For B23, the Kd was 15.5 ± 4.5 nM.

B24: target 1 A9U,C21U (mixed)
RNA 1: B1 RNA 1
RNA 2: B1 RNA 2 with C31U, C35G, A43U, C51A
Work on B24 yielded a Kd of 8.7 ± 0.8 nM.

B25: target 1 MT 5'PFS GGC 3'PFS AGU (mixed)
RNA 1: B1 RNA 1
RNA 2: B1 RNA 2 with U28G, A29C, C35G, C51A, C52A, C53G, G54U
Work on B25 yielded a Kd of 17.1 ± 2.45 nM.

B26: target 1 MT 5'PFS AAA 3'PFS AAG (mixed)
RNA 1: B1 RNA 1
RNA 2: B1 RNA 2 with G27A, U28A, C35G, C51A, C52A, C53A
B26 showed a Kd of 25.5 ± 6.5 nM.

B27: target 1 MT 5'PFS AGG 3'PFS AAA (mixed)
RNA 1: B1 RNA 1
RNA 2: B1 RNA 2 with G27A, U28G, A29G, C35G, C51A, C52A, C53A, G54A
B27 was tested, and the Kd was about 50 nM.

B28: target 1 MT 5'PFS ACC 3'PFS UCC (mixed)
RNA 1: B1 RNA 1
RNA 2: B1 RNA 2 with G27A, U28C, A29C, C35G, C51A, C52U, G54C
B28 gave a Kd of about 21 nM.

B29: target 1 MT 5'PFS AAC 3'PFS UCC (mixed)
RNA 1: B1 RNA 1
RNA 2: B1 RNA 2 with G27A, U28A, A29C, C35G, C51A, C52U, G54C
Work on B29 yielded a Kd of about 13.5 nM.

B30: target 1 MT 5'PFS GUA 3'PFS GCA (mixed)
RNA 1: B1 RNA 1
RNA 2: B1 RNA 2 with C35G, C51A, C52G, G54A
In the case of B30, the Kd is reported as 13.8 ± 1.4 nM.

B31: target 1 MT 5'PFS GGC 3'PFS AGG (mixed)
RNA 1: B1 RNA 1
RNA 2: B1 RNA 2 with U28G, A29C, C35G, C51A, C52A, C53G
B31 showed a Kd of 33.5 ± 5 nM.

B32: target 1 MT 5'PFS CAG 3'PFS AAA (mixed)
RNA 1: B1 RNA 1
RNA 2: B1 RNA 2 with G27C, U28A, A29G, C35G, C51A, C52A, C53A, G54A
In the case of B32, the Kd is reported as about 51.5 nM.

B33: target 1 MT 5'PFS CUA 3'PFS UCG (mixed)
RNA 1: B1 RNA 1
RNA 2: B1 RNA 2 with G27C, C35G, C51A, C52U
For B33, the Kd was 6 ± 0.95 nM.

B34: target 1 MT 5'PFS GAC 3'PFS AUA (mixed)
RNA 1: B1 RNA 1
RNA 2: B1 RNA 2 with U28A, A29C, C35G, C51A, C52A, C53U, G54A
In the case of B34, the Kd is reported as 25 ± 7.05 nM.

B35: target 1 MT 5'PFS GUA 3'PFS GCU (mixed)
RNA 1: B1 RNA 1
RNA 2: B1 RNA 2 with C35G, C51A, C52G, G54U
For B35, the Kd was 4.18 ± 0.37 nM.
